Data on seven molecules can be found in US20110256127A1 (Genentech, published 2011).

The target of assay [1] is T1, LRP6.E1-E2 fragment (biotinylated, His-tagged) (Homo sapiens (Human), UniProt O75581 19-644, biotinylated (AviTag system)).
T1 construct: BLI antigen from baculovirus-infected insect cells; also called LRP6 E1-E2 protein fragment; not shown: His tag and AviTag
T1 sequence: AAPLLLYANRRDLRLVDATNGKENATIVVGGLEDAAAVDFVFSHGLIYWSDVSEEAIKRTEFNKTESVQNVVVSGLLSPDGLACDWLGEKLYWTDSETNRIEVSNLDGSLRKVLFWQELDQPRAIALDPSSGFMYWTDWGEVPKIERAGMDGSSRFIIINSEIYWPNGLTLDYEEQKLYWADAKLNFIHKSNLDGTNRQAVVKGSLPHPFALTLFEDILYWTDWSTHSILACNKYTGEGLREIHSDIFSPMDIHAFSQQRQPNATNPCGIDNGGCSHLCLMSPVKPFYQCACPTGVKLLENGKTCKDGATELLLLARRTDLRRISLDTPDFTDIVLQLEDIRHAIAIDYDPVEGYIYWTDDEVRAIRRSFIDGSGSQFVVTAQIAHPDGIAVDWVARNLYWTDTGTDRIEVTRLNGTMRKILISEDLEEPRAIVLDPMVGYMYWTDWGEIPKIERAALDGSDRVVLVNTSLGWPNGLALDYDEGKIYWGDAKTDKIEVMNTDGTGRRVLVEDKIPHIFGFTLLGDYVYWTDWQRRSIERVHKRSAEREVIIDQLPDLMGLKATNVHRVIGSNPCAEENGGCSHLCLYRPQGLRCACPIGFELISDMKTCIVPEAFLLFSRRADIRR
Nature of the assay: biolayer interferometry, immobilized LRP6 E1-E2 fragment; Wnt9b at 200 nM; association then dissociation phase. The protocol: (§1) Biolayer interferometry was performed as previously described (Bourhis et al., 2010). Briefly, biotinylated, His-tagged LRP6 proteins were purified from baculovirus-infected insect cells using the AviTag system (GeneCopoeia). Binding kinetics were measured on the Octet RED System (ForteBio) using Streptavidin High Binding FA Biosensors loaded with 20 μg/ml LRP6 protein.
(§2) In these assays, antibody binding to LRP6 protein was allowed to reach equilibrium, and the subsequent wavelength shift in the interference pattern is shown for association and dissociation phases of Wnt protein binding.

In assay [2] the target is T2, LRP6.E3-E4 fragment (biotinylated, His-tagged) (Homo sapiens (Human), UniProt O75581 629-1244, biotinylated (AviTag system)).
T2 construct: BLI antigen from baculovirus-infected insect cells; also called LRP6.E3-E4 protein; not shown: His tag and AviTag
T2 sequence: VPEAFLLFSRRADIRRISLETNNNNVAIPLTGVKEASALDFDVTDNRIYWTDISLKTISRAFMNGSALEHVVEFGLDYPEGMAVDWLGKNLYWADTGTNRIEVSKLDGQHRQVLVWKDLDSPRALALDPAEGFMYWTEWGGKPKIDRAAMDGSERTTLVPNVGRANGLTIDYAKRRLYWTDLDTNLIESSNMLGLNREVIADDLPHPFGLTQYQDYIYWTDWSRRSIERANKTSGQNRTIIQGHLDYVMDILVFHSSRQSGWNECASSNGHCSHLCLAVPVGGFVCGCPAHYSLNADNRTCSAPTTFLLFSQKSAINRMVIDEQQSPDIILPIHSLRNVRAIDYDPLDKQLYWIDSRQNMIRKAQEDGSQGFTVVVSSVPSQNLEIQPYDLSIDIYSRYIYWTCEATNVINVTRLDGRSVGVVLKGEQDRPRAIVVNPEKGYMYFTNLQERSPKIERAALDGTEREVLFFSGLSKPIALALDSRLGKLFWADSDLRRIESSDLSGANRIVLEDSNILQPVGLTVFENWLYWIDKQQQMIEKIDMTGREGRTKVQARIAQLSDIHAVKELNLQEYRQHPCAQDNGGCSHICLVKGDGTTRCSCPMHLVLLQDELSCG
Nature of the assay: biolayer interferometry, immobilized LRP6 E3-E4 fragment; Wnt3a at 200 nM; association then dissociation phase. How it is done: as §1, §2

The target of assay [3] is T3, LRP6 (human; form used in the assay not stated) (human, UniProt O75581 20-1253, limits assumed).
T3 construct: probably an E3-E4 fragment for SPR
T3 sequence: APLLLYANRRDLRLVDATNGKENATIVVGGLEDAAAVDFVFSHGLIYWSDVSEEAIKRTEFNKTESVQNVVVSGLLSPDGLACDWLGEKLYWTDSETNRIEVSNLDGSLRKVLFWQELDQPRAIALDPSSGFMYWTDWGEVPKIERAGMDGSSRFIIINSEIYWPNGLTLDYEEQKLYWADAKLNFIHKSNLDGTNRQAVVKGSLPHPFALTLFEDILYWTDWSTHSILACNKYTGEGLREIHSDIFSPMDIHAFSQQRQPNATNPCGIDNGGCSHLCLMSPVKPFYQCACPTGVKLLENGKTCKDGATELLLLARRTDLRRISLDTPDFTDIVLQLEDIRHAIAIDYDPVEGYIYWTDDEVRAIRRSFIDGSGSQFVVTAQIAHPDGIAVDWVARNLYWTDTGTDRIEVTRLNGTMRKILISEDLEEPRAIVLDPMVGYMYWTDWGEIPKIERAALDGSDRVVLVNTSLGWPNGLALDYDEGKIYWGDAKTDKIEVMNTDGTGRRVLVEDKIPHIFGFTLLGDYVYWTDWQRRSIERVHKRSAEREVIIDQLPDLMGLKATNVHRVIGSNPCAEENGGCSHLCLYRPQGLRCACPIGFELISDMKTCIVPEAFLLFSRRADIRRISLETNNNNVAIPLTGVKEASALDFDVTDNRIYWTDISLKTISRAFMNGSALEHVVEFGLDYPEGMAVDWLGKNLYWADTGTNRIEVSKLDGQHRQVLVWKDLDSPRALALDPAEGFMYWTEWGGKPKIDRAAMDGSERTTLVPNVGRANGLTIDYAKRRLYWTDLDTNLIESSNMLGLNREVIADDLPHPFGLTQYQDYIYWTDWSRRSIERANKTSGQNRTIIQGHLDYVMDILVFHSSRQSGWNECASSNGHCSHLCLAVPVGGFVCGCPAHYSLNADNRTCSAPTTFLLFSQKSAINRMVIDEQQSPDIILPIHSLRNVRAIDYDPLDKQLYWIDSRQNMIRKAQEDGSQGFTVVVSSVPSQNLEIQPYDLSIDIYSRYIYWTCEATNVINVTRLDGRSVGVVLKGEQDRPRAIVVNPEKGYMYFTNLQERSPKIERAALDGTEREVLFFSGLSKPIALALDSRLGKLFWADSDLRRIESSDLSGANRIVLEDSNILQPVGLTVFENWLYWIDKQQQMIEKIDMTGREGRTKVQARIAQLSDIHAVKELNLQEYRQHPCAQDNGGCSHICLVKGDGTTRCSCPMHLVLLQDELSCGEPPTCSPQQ
Nature of the assay: SPR; LRP6 construct not stated; SPR. On the technique in general: In SPR one partner is held on a chip, and binding of the other changes the refractive index at the surface.

A further assay deals with LRP6.E1-E2-Fc (human). Nature of the assay: ELISA. (In general: An ELISA detects its analyte on a solid surface through an enzyme-linked reagent.)
LRP6.E1-E2-Fc (human), sequence (chain, as listed by the source limits assumed): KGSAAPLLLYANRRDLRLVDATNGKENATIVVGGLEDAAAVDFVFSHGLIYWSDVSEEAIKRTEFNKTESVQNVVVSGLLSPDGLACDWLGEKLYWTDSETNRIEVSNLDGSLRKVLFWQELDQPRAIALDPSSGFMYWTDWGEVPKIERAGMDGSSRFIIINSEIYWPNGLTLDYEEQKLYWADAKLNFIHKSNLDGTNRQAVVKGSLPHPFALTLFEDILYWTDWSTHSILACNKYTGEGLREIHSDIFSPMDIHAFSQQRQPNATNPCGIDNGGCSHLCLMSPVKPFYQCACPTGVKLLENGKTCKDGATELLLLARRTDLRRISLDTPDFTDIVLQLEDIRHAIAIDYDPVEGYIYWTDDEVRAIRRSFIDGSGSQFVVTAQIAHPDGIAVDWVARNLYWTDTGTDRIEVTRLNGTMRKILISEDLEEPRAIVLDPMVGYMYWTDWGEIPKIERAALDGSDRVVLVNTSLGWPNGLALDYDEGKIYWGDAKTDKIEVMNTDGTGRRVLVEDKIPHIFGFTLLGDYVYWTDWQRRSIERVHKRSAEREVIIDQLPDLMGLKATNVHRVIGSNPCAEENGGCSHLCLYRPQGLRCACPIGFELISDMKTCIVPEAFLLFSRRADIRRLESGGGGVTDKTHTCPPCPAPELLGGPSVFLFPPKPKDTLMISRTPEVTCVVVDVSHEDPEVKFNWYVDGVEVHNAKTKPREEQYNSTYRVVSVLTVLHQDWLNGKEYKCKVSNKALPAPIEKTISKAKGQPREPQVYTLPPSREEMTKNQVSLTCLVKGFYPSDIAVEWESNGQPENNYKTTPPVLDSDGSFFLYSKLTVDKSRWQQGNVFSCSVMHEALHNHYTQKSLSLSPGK
The target in a further assay is T4, LRP6.E3-E4-Fc (human).
T4 construct: also called LRP6.E3-4-Fc
T4 sequence (chain, as listed by the source limits assumed): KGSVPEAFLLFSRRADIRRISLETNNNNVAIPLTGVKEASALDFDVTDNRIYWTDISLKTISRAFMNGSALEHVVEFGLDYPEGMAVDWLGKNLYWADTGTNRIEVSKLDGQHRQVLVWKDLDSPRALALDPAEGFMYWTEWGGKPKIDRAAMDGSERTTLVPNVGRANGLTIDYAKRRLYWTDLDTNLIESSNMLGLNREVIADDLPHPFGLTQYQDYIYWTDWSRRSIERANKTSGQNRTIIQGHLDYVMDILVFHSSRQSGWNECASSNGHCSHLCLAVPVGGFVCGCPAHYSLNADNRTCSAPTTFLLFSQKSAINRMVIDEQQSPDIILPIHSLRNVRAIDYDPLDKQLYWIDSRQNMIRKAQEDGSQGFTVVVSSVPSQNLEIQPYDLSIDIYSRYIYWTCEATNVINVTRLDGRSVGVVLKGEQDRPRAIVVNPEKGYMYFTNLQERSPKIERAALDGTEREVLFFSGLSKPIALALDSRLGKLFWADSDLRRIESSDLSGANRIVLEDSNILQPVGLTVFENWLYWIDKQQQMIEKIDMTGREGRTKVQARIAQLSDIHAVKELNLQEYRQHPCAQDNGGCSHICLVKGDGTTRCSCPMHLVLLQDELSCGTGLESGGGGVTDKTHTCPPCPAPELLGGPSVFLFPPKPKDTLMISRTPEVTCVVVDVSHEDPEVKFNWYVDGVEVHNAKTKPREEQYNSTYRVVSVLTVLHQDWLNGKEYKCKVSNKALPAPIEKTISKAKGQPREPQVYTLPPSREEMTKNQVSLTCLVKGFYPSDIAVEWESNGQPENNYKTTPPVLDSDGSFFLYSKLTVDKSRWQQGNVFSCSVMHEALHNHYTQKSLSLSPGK
Nature of the assay: ELISA.

In assay [4] the target is T3, LRP6 (human; form used in the assay not …). Nature of the assay: Scatchard analysis; format not stated; Scatchard analysis.
For the next assay, the target named is LRP6 on HEK293 cells (human, UniProt O75581 20-1613). Nature of the assay: cell-based or functional assay.
Assay [5] deals with T5, His-tagged LRP6.E3-E4 protein (human, UniProt O75581 629-1244).
T5 construct: also called LRP6.E3-4-His; printed once as LRP3.E3-E4; not shown: His tag
T5 sequence: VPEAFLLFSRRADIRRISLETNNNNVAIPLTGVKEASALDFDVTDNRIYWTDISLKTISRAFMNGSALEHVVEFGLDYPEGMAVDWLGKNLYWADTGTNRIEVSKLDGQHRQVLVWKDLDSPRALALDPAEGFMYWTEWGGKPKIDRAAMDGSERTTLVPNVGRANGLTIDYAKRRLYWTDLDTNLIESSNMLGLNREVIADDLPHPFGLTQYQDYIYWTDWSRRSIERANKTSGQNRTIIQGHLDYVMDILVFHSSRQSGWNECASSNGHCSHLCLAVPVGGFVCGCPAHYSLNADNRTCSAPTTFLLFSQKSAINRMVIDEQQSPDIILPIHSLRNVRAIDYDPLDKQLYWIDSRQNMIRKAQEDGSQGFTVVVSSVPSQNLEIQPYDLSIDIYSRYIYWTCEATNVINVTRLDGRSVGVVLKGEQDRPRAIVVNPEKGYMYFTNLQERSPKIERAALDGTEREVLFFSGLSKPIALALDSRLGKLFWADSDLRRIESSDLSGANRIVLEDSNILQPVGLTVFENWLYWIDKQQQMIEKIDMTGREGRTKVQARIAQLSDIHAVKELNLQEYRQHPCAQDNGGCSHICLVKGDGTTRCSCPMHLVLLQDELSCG
Nature of the assay: phage competition ELISA, phage-displayed clone.

The target in assay [6] is T3, LRP6 (human; form used in the assay not …). Nature of the assay: SPR (BIAcore), full length IgG; LRP6 construct not stated; affinity-matured clone, full length human IgG.

What is called Kd is the constant that tells how readily two partners part at equilibrium.

Where “and” joins values, the source holds several entries; their conditions need not be identical. Equal entries are not always repeated.

B1: Wnt9b (ligand, mouse, UniProt O35468 24-359, looked up)
chain: AAYFGLTGREVLTPFPGLGTAAAPAQAGAHLKQCDLLKLSRRQKQLCRREPGLAETLRDAAHLGLLECQFQFRQERWNCSLEGRTGLLQRGFKETAFLYAVSAAALTHALARACSAGRMERCTCDDSPGLESRQAWQWGVCGDNLKYSTKFLSNFLGPKRGSKDLRARADAHNTHVGIKAVKSGLRTTCKCHGVSGSCAVRTCWKQLSPFRETGQVLKLRYDTAVKVSSATNEALGRLELWAPAKPGGPAKGLAPRPGDLVYMEDSPSFCRPSKYSPGTAGRVCSRDSSCSSLCCGRGYDTQSRMVVFSCHCQVQWCCYVECQQCAQQELVYTCKR
notes: also called purified mouse Wnt9b
As for B1, the binding result in assay [1] is on record as “binds”.

B2: Wnt3a (ligand, human, UniProt P56704 19-352, looked up)
chain: SYPIWWSLAVGPQYSSLGSQPILCASIPGLVPKQLRFCRNYVEIMPSVAEGIKIGIQECQHQFRGRRWNCTTVHDSLAIFGPVLDKATRESAFVHAIASAGVAFAVTRSCAEGTAAICGCSSRHQGSPGKGWKWGGCSEDIEFGGMVSREFADARENRPDARSAMNRHNNEAGRQAIASHMHLKCKCHGLSGSCEVKTCWWSQPDFRAIGDFLKDKYDSASEMVVEKHRESRGWVETLRPRYTYFKVPTERDLVYYEASPNFCEPNPETGSFGTRDRTCNVSSHGIDGCDLLCCGRGHNARAERRREKCRCVFHWCCYVSCQECTRVYDVHTCK
notes: also called purified human Wnt3a
On to B2, for which, in assay [2], the binding result is reported as “binds”.

B3: YW211.31 antibody (antibody, human IgG1, kappa, V domains shown)
VH: EVQLVESGGGLVQPGGSLRLSCAASGFTFTSYYISWVRQAPGKGLEWVAEISPYSGSTYYADSVKGRFTISADTSKNTAYLQMNSLRAEDTAVYYCALRARPPIRLHPRGSVMDYWGQGTLVTVSS
VL: DIQMTQSPSSLSASVGDRVTITCRASQDVSTAVAWYQQKPGKAPKLLIYSASFLYSGVPSRFSGSGSGTDFTLTISSLQPEDFATYYCQQSYTTPPTFGQGTKVEIKR
notes: also called intact YW211.31 antibody
Take B3: the Kd is about 2 nM in [3] and about 0.6 nM in assay [4]. Moreover, the binding result with LRP6.E1-E2-Fc is reported as “no binding”; with LRP6.E3-E4-Fc, “binds”. The “IC50, inhibition of signaling (Wnt luciferase reporter) in Wnt3a-stimulated HEK293 cells” value with LRP6 on HEK293 cells is ~1 ug/ml and ~6 nM.

B4: YW211.31.11 antibody (antibody, V domains shown)
VH: EVQLVESGGGLVQPGGSLRLSCAASGFTFGFYYLSWVRQAPGKGLEWVAEISPYSGSTYYADSVKGRFTISADTSKNTAYLQMNSLRAEDTAVYYCALRARPPIRLHPRGSVMDYWGQGTLVTVSS
VL: DIQMTQSPSSLSASVGDRVTITCRASQDVSTAVAWYQQKPGKAPKLLIYSASFLYSGVPSRFSGSGSGTDFTLTISSLQPEDFATYYCQQSYAIPTTFGQGTKVEIKR
With B4, in [5], the binding result was “binds”.

B5: YW211.31.35 antibody (antibody, V domains shown)
VH: EVQLVESGGGLVQPGGSLRLSCAASGFTFGFYYISWVRQAPGKGLEWVAEISPYSGSTYYADSVKGRFTISADTSKNTAYLQMNSLRAEDTAVYYCALRARPPIRLHPRGSVMDYWGQGTLVTVSS
VL: DIQMTQSPSSLSASVGDRVTITCRASQDVSTAVAWYQQKPGKAPKLLIYSASFLYSGVPSRFSGSGSGTDFTLTISSLQPEDFATYYCQQSYTTPPTFGQGTKVEIKR
As for B5, the binding result in [5] is “binds”.

B6: YW211.31.62 antibody (antibody, human IgG1, kappa, V domains shown)
VH: EVQLVESGGGLVQPGGSLRLSCAASGFTFGYYYISWVRQAPGKGLEWVAEISPYSGSTYYADSVKGRFTISADTSKNTAYLQMNSLRAEDTAVYYCALRARPPIRLHPRGSVMDYWGQGTLVTVSS
VL: DIQMTQSPSSLSASVGDRVTITCRASQDVSTAVAWYQQKPGKAPKLLIYSASFLYSGVPSRFSGSGSGTDFTLTISSLQPEDFATYYCQQSYTTPPTFGQGTKVEIKR
On to B6, for which the Kd in [6] worked out at 0.17 nM. For the same molecule, the “IC50, inhibition of signaling in Wnt3a-stimulated HEK293 cells” value with LRP6 on HEK293 cells was ~0.1 µg/ml and ~0.6 nM.

B7: YW211.31.57 antibody (antibody, human IgG1, kappa, V domains shown)
VH: EVQLVESGGGLVQPGGSLRLSCAASGFTFTSYYISWVRQAPGKGLEWVAEISPYSGSTYYADSVKGRFTISADTSKNTAYLQMNSLRAEDTAVYYCALRARPPIRLYPRGSVMDYWGQGTLVTVSS
VL: DIQMTQSPSSLSASVGDRVTITCRASQDVSTAVAWYQQKPGKAPKLLIYSASFLYSGVPSRFSGSGSGTDFTLTISSLQPEDFATYYCQQSYTLPTTFGQGTKVEIKR
Consider B7, for which binding in assay [6] was put at a Kd of 0.27 nM. Besides, in the assay with LRP6 on HEK293 cells, the “IC50, inhibition of signaling in Wnt3a-stimulated HEK293 cells” value was ~0.1 µg/ml and ~0.6 nM.
